Measurements taken from US20160369002A1 (INNATE PHARMA, published 2016).

Key:
[1] = target: T1, Human CD16a (human, UniProt P08637 17-208); test: SPR (Biacore T100), bispecific immobilised on CM5 chip, soluble FcR 60-5000 nM, Steady State Affinity model
T1 construct: also called FcγRIIIa
Description: (§1) SPR measurements were performed on a Biacore T100 apparatus (Biacore GE Healthcare) at 25° C. In all Biacore experiments HBS-EP+ (Biacore GE Healthcare) and 10 mM NaOH, 500 mM NaCl served as running buffer and regeneration buffer respectively. Sensorgrams were analyzed with Biacore T100 Evaluation software. Recombinant human FcR's (CD64, CD32a, CD32b, CD16a and CD16b) were cloned, produced and purified.
(§2) The chip surface was activated with EDC/NHS (N-ethyl-N′-(3-dimethylaminopropyl) carbodiimidehydrochloride and N-hydroxysuccinimide (Biacore GE Healthcare)). Bispecific antibodies were diluted to 10 pg/ml in coupling buffer (10 mM acetate, pH 5.6) and injected until the appropriate immobilization level was reached (i.e. 800 to 900 RU). Deactivation of the remaining activated groups was performed using 100 mM ethanolamine pH 8 (Biacore GE Healthcare).
(§3) Monovalent affinity study was assessed following a classical kinetic wizard (as recommended by the manufacturer). Serial dilutions of soluble analytes (FcRs) ranging from 0.7 to 60 nM for CD64 and from 60 to 5000 nM for all the other FcRs were injected over the immobilized bispecific antibodies and allowed to dissociate for 10 min before regeneration. The entire sensorgram sets were fitted using the 1:1 kinetic binding model for CD64 and with the Steady State Affinity model for all the other FcRs.

[2] = target: T2, Human CD32b (human, UniProt P31994 46-217, limits assumed); test: as above
T2 construct: also called FcγRIIB
T2 sequence (looked up): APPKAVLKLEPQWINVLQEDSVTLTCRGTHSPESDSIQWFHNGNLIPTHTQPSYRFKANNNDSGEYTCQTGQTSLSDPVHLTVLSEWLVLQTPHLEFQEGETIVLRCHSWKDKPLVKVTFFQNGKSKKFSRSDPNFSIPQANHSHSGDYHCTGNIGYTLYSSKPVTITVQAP
Description: as §1, §2, §3

[3] = target: T3, Human CD16b (human, UniProt O75015 17-200); test: as above
T3 construct: also called FcγRIIIb
Description: as §1, §2, §3

[4] = target: T4, Human CD32a (human, UniProt P12318 36-218, limits assumed); test: as above
T4 construct: also called FcγRIIA
T4 sequence (looked up): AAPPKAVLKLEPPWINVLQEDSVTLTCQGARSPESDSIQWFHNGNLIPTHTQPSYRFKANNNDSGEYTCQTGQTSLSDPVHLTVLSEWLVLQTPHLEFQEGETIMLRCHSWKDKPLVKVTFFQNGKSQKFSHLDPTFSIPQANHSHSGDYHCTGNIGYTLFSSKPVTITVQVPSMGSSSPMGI
Description: as §1, §2, §3

[5] = target: T5, Human CD64 (human, UniProt P12314 16-288, limits assumed); test: SPR (Biacore T100), bispecific immobilised on CM5 chip, soluble CD64 0.7-60 nM, 1:1 kinetic model
T5 construct: also called FcγRI
Description: as §1, §2, §3

[6] = target: T1, Human CD16a; test: SPR (Biacore T100), bispecific immobilised on CM5 chip, soluble FcR
Description: as §1, §2, §3

[7] = target: T2, Human CD32b; test: as above
Description: as §1, §2, §3

[8] = target: T3, Human CD16b; test: as above
Description: as §1, §2, §3

[9] = target: T5, Human CD64; test: as above
Description: as §1, §2, §3

[10] = target: T4, Human CD32a; test: as above
Description: as §1, §2, §3

[11] = target: T6, Human NKp46 recombinant protein (human, UniProt O76036 22-258); test: SPR (Biacore T100), bispecific captured on Protein-A chip, soluble recombinant human NKp46
T6 construct: also called recombinant human NKp46 proteins
Description: SPR measurements were performed on a Biacore T100 apparatus (Biacore GE Healthcare) at 25° C. In all Biacore experiments HBS-EP+ (Biacore GE Healthcare) and NaOH 10 mM served as running buffer and regeneration buffer respectively. Sensorgrams were analyzed with Biacore T100 Evaluation software. Protein-A was purchased from (GE Healthcare). Human NKp46 recombinant proteins were cloned, produced and purified at Innate Pharma.
as §2, with “Protein-A was” for “Bispecific antibodies were”, “μg/ml” for “pg/ml”, “2000” for “800 to 900”
Seven serial dilutions of human NKp46 recombinant proteins, ranging from 6.25 to 400 nM were sequentially injected over the captured Bi-Specific antibodies and allowed to dissociate for 10 min before regeneration. The entire sensorgram sets were fitted using the 1:1 kinetic binding model.

T1 sequence (P08637 17-208 limits assumed): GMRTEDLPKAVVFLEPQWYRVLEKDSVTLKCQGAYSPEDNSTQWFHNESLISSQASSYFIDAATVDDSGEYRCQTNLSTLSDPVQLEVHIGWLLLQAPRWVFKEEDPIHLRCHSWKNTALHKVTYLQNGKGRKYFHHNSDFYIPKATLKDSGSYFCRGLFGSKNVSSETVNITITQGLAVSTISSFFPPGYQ
T3 sequence (O75015 17-200 limits assumed): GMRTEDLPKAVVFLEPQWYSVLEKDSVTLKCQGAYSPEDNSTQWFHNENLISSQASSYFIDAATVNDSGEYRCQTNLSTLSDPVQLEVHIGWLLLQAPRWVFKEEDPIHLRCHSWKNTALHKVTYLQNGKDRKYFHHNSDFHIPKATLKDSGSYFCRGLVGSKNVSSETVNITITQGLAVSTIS
T5 sequence (P12314 16-288 limits assumed): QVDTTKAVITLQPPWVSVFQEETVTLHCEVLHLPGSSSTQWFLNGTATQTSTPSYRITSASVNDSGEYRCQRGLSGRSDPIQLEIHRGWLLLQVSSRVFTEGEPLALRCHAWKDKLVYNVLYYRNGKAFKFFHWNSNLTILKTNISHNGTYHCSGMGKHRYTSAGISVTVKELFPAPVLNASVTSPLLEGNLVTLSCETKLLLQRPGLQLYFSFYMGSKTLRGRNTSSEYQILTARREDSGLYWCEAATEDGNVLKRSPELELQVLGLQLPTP
T6 sequence (O76036 22-258 Q82K limits assumed): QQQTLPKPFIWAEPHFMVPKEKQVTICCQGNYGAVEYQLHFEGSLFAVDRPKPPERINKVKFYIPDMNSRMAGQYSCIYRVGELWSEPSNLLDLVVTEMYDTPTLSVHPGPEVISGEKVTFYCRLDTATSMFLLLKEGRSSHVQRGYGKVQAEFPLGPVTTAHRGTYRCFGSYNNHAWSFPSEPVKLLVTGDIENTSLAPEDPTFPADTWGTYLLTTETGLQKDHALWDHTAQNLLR

B1: CD19-F5-NKp46-3 (bispecific antibody, human IgG1, kappa)
chain 1: not shown
chain 2: not shown
chain 3: DIVMTQSPATLSVTPGDRVSLSCRASQSISDYLHWYQQKSHESPRLLIKYASQSISGIPSRFSGSGSGSDFTLSINSVEPEDVGVYYCQNGHSFPLTFGAGTKLELKASTKGPSVFPLAPSSKSTSGGTAALGCLVKDYFPEPVTVSWNSGALTSGVHTFPAVLQSSGLYSLSSVVTVPSSSLGTQTYICNVNHKPSNTKVDKRVEPKSCDKTH
**Q.** B1 was tested. Which Kd [1] did it give?
**A.** 1100 nM

**Q.** What about the Kd [2] of the same binder?
**A.** 1850 nM

**Q.** And the Kd [3]?
**A.** 2430 nM

**Q.** What about the Kd [4] of the same binder?
**A.** 846 nM

**Q.** And the Kd [5]?
**A.** 0.7 nM

B2: CD19-F6-NKp46-3 (bispecific antibody, human IgG1, kappa)
chain 1: not shown
chain 2: not shown
chain 3: B1 chain 3
**Q.** Does B2 bind [6]?
**A.** no binding (tested: 60 to 5000 nM)

**Q.** Does B2 bind [7]?
**A.** no binding (tested: 60 to 5000 nM)

**Q.** Does B2 bind [8]?
**A.** no binding (tested: 60 to 5000 nM)

**Q.** Does B2 bind [9]?
**A.** no binding (tested: 0.7 to 60 nM)

**Q.** Does B2 bind [10]?
**A.** no binding (tested: 60 to 5000 nM)

B3: CD19-F1-NKp46-6 (bispecific antibody)
chain: DIQLTQSPASLAVSLGQRATISCKASQSVDYDGDSYLNWYQQIPGQPPKLLIYDASNLVSGIPPRFSGSGSGTDFTLNIHPVEKVDAATYHCQQSTEDPWTFGGGTKLEIKGGGGSGGGGSGGGGSQVQLQQSGAELVRPGSSVKISCKASGYAFSSYWMNWVKQRPGQGLEWIGQIWPGDGDTNYNGKFKGKATLTADESSSTAYMQLSSLASEDSAVYFCARRETTTVGRYYYAMDYWGQGTTVTVSSGGGSSAPELLGGPSVFLFPPKPKDTLMISRTPEVTCVVVDVSHEDPEVKFNWYVDGVEVHNAKTKPREEQYNSTYRVVSVLTVLHQDWLNGKEYKCKVSNKALPAPIEKTISKAKGQPREPQVYTKPPSREEMTKNQVSLSCLVKGFYPSDIAVEWESNGQPENNYKTTVPVLDSDGSFRLASYLTVDKSRWQQGNVFSCSVMHEALHNHYTQKSLSLSPGSTGSQVQLQQPGSVLVRPGASVKLSCKASGYTFTSSWMHWAKQRPGQGLEWIGHIHPNSGISNYNEKFKGKATLTVDTSSSTAYVDLSSLTSEDSAVYYCARGGRFDDWGAGTTVTVSSVEGGSGGSGGSGGSGGVDDIVMTQSPATLSVTPGDRVSLSCRASQSISDYLHWYQQKSHESPRLLIKYASQSISGIPSRFSGSGSGSDFTLSINSVEPEDVGVYYCQNGHSFLMYTFGGGTKLEIK
notes: Single chain F1 format, complete mature protein
**Q.** Does B3 bind [11]?
**A.** no binding
